Key:
[1] = tested on: primary human cell cultures (11 cell types); assay: Custom gene array, 11 human cell types in normoxia or hypoxia for 6 hr and 18 hr; assay type: cell-based;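 for mRNA expression level, #1 HY 18 hr: cell type #1 is adipocyte from subcutaneous adult adipose tissue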;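 for mRNA expression level, #1 HY 6 hr: cell type #1 is adipocyte from subcutaneous adult adipose tissue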;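 for mRNA expression level, #1 NO: cell type #1 is adipocyte from subcutaneous adult adipose tissue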;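 for mRNA expression level, #2 HY 18 hr: cell type #2 is fetal cardiomyocyte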;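 for mRNA expression level, #2 HY 6 hr: cell type #2 is fetal cardiomyocyte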;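 for mRNA expression level, #2 NO: cell type #2 is fetal cardiomyocyte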;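 for mRNA expression level, #3 HY 6 hr: cell type #3 is human umbilical vein endothelial cells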;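 for mRNA expression level, #3 NO: cell type #3 is human umbilical vein endothelial cells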;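 for mRNA expression level, #4 HY 18 hr: cell type #4 is adult dermal fibroblast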;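 for mRNA expression level, #4 HY 6 hr: cell type #4 is adult dermal fibroblast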;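 for mRNA expression level, #4 NO: cell type #4 is adult dermal fibroblast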;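 for mRNA expression level, #5 HY 6 hr: cell type #5 is adult hepatocyte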;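 for mRNA expression level, #5 NO: cell type #5 is adult hepatocyte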;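 for mRNA expression level, #6 HY 6 hr: cell type #6 is blood-derived macrophage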;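 for mRNA expression level, #6 NO: cell type #6 is blood-derived macrophage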
Outline: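 Values are each gene's expression relative to its median over all cell types and conditions, after per-array normalisation to control genes and merging of replicate arrays. Cells were 11 human types, mostly unmodified primary cultures, kept in normoxia or exposed to hypoxia for 6 hr or 18 hr.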

[2] = tested on: human breast and ovary tumors; assay: Custom gene array, breast and ovary tumors versus normal adjacent tissue; conditions: Table 19; for gene expression level on custom gene array, Breast nor H / gene expression level on custom gene array, Breast nor K / gene expression level on custom gene array, Ovary nor E / gene expression level on custom gene array, Ovary nor F / gene expression level on custom gene array, Ovary nor G: normal adjacent tissue; for gene expression level on custom gene array, Breast nor H / gene expression level on custom gene array, Breast tum H: patient H; for gene expression level on custom gene array, Breast nor K / gene expression level on custom gene array, Breast tum K: patient K; for gene expression level on custom gene array, Breast tum H / gene expression level on custom gene array, Breast tum K / gene expression level on custom gene array, Ovary tum E / gene expression level on custom gene array, Ovary tum F / gene expression level on custom gene array, Ovary tum G: tumor tissue; for gene expression level on custom gene array, Ovary nor E / gene expression level on custom gene array, Ovary tum E: patient E; for gene expression level on custom gene array, Ovary nor F / gene expression level on custom gene array, Ovary tum F: patient F; for gene expression level on custom gene array, Ovary nor G / gene expression level on custom gene array, Ovary tum G: patient G
Outline: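 Values are per-gene relative to that gene's median across the series, after per-chip normalisation for labelling and hybridization efficiency. Samples: breast and ovary tumors with normal tissue from 5 patients of varied diagnoses, mostly from the same individual (one age-matched separate donor), compared within patient.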

human macrophages = assay: Custom gene array, macrophages with no cytokines, IL-10 or LPS + IFN, in normoxia and hypoxia; assay type: cell-based; conditions: for mRNA EXPRESSION (experimental condition) #1: #1 no cytokines/normoxia; for mRNA EXPRESSION (experimental condition) #2: #2 no cytokines/hypoxia; for mRNA EXPRESSION (experimental condition) #3: #3 IL-10/normoxia; for mRNA EXPRESSION (experimental condition) #4: #4 IL-10/hypoxia; for mRNA EXPRESSION (experimental condition) #5: #5 LPS/IFN/normoxia; for mRNA EXPRESSION (experimental condition) #6: #6 LPS/IFN/hypoxia
Outline: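 Cultured macrophages were left untreated or given IL-10 or LPS + IFN, each at 100 ng/ml final, for 6 hr under normoxia or hypoxia (0.1% oxygen). Six conditions in total.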

[3] = Table 16, referenced to median of the gene over 6 conditions
[4] = Table 15, referenced to the median value of that gene throughout all 6 conditions

B1: p1E4 (nucleic acid, listed as Homo Sapiens)
DNA: AATTATATATTACATGTTTATTAAGAGCACAACTTTTATGTAAAATTTACATTTAATGAAAAAAATCAAAAATATTTACAAAATCTTGGAAGACAGATGTGCATTGTTCTAATTACAATCCAAAGTAGTAAATAACAATCCTTTAAAACTCACATTTATTAGAGTTGTGTTTACAAATTCTTGGTTAAAGAGGCAGCTACAAAGTTTACCACTATATATAAGCAAGAACCAGCTTGCTAGGTACATTTCCCATTGAAAATCTACTGGTCTCTTTTACACCATTAGTGGATTTTTAAATGGAAAAAAAAAATCAATATAAACTCATATGGCTTCAAAATTGTA
modifications: EST array clone
mRNA expression level, #1 HY 6 hr ([1]; cell type #1, hypoxia 6 hr): 0.51
mRNA expression level, #1 HY 18 hr ([1]; cell type #1, hypoxia 18 hr): 0.79
mRNA expression level, #1 NO ([1]; cell type #1, normoxia): 0.65
mRNA expression level, #2 HY 6 hr ([1]; cell type #2, hypoxia 6 hr): 1.24
mRNA expression level, #2 HY 18 hr ([1]; cell type #2, hypoxia 18 hr): 1.18
mRNA expression level, #2 NO ([1]; cell type #2, normoxia): 1.06
mRNA expression level, #3 HY 6 hr ([1]; cell type #3, hypoxia 6 hr): 1.57
mRNA expression level, #3 HY 18 hr ([1]; cell type #3, hypoxia 18 hr): 1.70
mRNA expression level, #3 NO ([1]; cell type #3, normoxia): 1.59
mRNA expression level, #4 HY 6 hr ([1]; cell type #4, hypoxia 6 hr): 0.76
mRNA expression level, #4 HY 18 hr ([1]; cell type #4, hypoxia 18 hr): 0.91
mRNA expression level, #4 NO ([1]; cell type #4, normoxia): 0.80
mRNA expression level, #5 HY 6 hr ([1]; cell type #5, hypoxia 6 hr): 0.39
mRNA expression level, #5 NO ([1]; cell type #5, normoxia): 0.34
mRNA expression level, #6 HY 6 hr ([1]; cell type #6, hypoxia 6 hr): 1.13
#6 HY 18 hr (mRNA expression level) ([1]; cell type #6, hypoxia 18 hr): 1.21
mRNA expression level, #6 NO ([1]; cell type #6, normoxia): 0.97
#7 HY 6 hr (mRNA expression level) ([1]; cell type #7, hypoxia 6 hr): 1.17
#7 HY 18 hr (mRNA expression level) ([1]; cell type #7, hypoxia 18 hr): 0.82
#7 NO (mRNA expression level) ([1]; cell type #7, normoxia): 1.65
#8 HY 6 hr (mRNA expression level) ([1]; cell type #8, hypoxia 6 hr): 1.28
#8 HY 18 hr (mRNA expression level) ([1]; cell type #8, hypoxia 18 hr): 1.71
#8 NO (mRNA expression level) ([1]; cell type #8, normoxia): 0.74
#9 HY 6 hr (mRNA expression level) ([1]; cell type #9, hypoxia 6 hr): 0.97
#9 HY 18 hr (mRNA expression level) ([1]; cell type #9, hypoxia 18 hr): 0.93
#9 NO (mRNA expression level) ([1]; cell type #9, normoxia): 0.95
#10 HY 6 hr (mRNA expression level) ([1]; cell type #10, hypoxia 6 hr): 1.35
#10 HY 18 hr (mRNA expression level) ([1]; cell type #10, hypoxia 18 hr): 1.44
#10 NO (mRNA expression level) ([1]; cell type #10, normoxia): 0.78
#11 HY 6 hr (mRNA expression level) ([1]; cell type #11, hypoxia 6 hr): 1.48
#11 HY 18 hr (mRNA expression level) ([1]; cell type #11, hypoxia 18 hr): 1.35
#11 NO (mRNA expression level) ([1]; cell type #11, normoxia): 1.30
HIGHEST FOLD CHANGE IN HYPOXIA (hr hypoxia + cell type) ([1]; hypoxia/normoxia induction ratio, 18 hr monocyte): 2.31 (18 hr monocyte) fold
gene expression level on custom gene array, Breast nor H [2]: 1.00
gene expression level on custom gene array, Breast nor K [2]: 1.06
gene expression level on custom gene array, Breast tum H [2]: 0.69
gene expression level on custom gene array, Breast tum K [2]: 0.46
gene expression level on custom gene array, Ovary nor E [2]: 1.30
gene expression level on custom gene array, Ovary nor F [2]: 0.88
gene expression level on custom gene array, Ovary nor G [2]: 0.70
gene expression level on custom gene array, Ovary tum E [2]: 1.67
gene expression level on custom gene array, Ovary tum F [2]: 0.65
gene expression level on custom gene array, Ovary tum G [2]: 0.17
mRNA EXPRESSION (experimental condition) #1 (human macrophages; [3]): 1.22
mRNA EXPRESSION (experimental condition) #2 (human macrophages; [3]): 1.13
mRNA EXPRESSION (experimental condition) #3 (human macrophages; [3]): 1.09
mRNA EXPRESSION (experimental condition) #4 (human macrophages; [3]): 0.96
mRNA EXPRESSION (experimental condition) #5 (human macrophages; [3]): 0.40
mRNA EXPRESSION (experimental condition) #6 (human macrophages; [3]): 0.40

B2: p1F24 (nucleic acid, listed as Homo Sapiens)
DNA: ATGAACTGGCATCTCCCCCTCTTCCTCTTGGCCTCTGTGACGCTGCCTTCCATCTGCTCCCACTTCAATCCTCTGTCTCTCGAGGAACTAGGCTCCAACACGGGGATCCAGGTTTTCAATCAGATTGTGAAGTCGAGGCCTCATGACAACATCGTGATCTCTCCCCATGGGATTGCGTCGGTCCTGGGGATGCTTCAGCTGGGGGCGGACGGCAGGACCAAGAAGCAGCTCGCCATGGTGATGAGATACGGCGTAAATGGAGTTGGTAAAATATTAAAGAAGATCAACAAGGCCATCGTCTCCAAGAAGAATAAAGACATTGTGACAGTGGCTAACGCCGTGTTTGTTAAGAATGCCTCTGAAATTGAAGTGCCTTTTGTTACAAGGAACAAAGATGTGTTCCAGTGTGAGGTCCGGAATGTGAACTTTGAGGATCCAGCCTCTGCCTGTGATTCCATCAATGCATGGGTTAAAAACGAAACCAGGGATATGATTGACAATCTGCTGTCCCCAGATCTTATTGATGGTGTGCTCACCAGACTGGTCCTCGTCAACGCAGTGTATTTCAAGGGTCTGTGGAAATCACGGTTCCAACCCGAGAACACAAAGAAACGCACTTTCGTGGCAGCCGACGGGAAATCCTATCAAGTGCCAATGCTGGCCCAGCTCTCCGTGTTCCGGTGTGGGTCGACAAGTGCCCCCAATGATTTATGGTACAACTTCATTGAACTGCCCTACCACGGGGAAAGCATCAGCATGCTGATTGCACTGCCGACTGAGAGCTCCACTCCGCTGTCTGCCATCATCCCACACATCAGCACCAAGACCATAGACAGCTGGATGAGCATCATGGTCCCCAAGAGGGTGCAGGTGATCCTGCCCAAGTTCACAGCTGTAGCACAAACAGATTTGAAGGAGCCGCTGAAAGTTCTTGGCATTACTGACATGTTTGATTCATCAAAGGCAAATTTTGCAAAAATAACAAGGTCAGAAAACCTCCATGTTTCTCATATCTTGCAAAAAGCAAAAATTGAAGTCAGTGAAGATGGAACCAAAGCTTCAGCAGCAACAACTGCAATTCTCATTGCAAGATCATCGCCTCCCTGGTTTATAGTAGACAGACCTTTTCTGTTTTTCATCCGACATAATCCTACAGGTGCTGTGTTATTCATGGGGCAGATAAACAAACCC
mRNA expression level ([1]; cell type #1, HY (hypoxia) 6 hr): 0.70
mRNA expression level ([1]; cell type #1, HY (hypoxia) 18 hr): 1.01
mRNA expression level ([1]; cell type #1, NO (normoxia)): 1.17
mRNA expression level ([1]; cell type #2, HY (hypoxia) 6 hr): 5.52
mRNA expression level ([1]; cell type #2, HY (hypoxia) 18 hr): 8.15
mRNA expression level ([1]; cell type #2, NO (normoxia)): 9.63
mRNA expression level ([1]; cell type #3, HY (hypoxia) 6 hr): 0.87
mRNA expression level ([1]; cell type #3, HY (hypoxia) 18 hr): 0.56
mRNA expression level ([1]; cell type #3, NO (normoxia)): 0.56
mRNA expression level ([1]; cell type #4, HY (hypoxia) 6 hr): 11.5
mRNA expression level ([1]; cell type #4, HY (hypoxia) 18 hr): 14.2
mRNA expression level ([1]; cell type #4, NO (normoxia)): 12.8
mRNA expression level ([1]; cell type #5, HY (hypoxia) 6 hr): 0.15
mRNA expression level ([1]; cell type #5, NO (normoxia)): 0.12
mRNA expression level ([1]; cell type #6, HY (hypoxia) 6 hr): 0.14
mRNA expression level ([1]; cell type #6, NO (normoxia)): 0.11
gene expression level on custom gene array, Breast nor H [2]: 1.64
gene expression level on custom gene array, Breast nor K [2]: 1.25
gene expression level on custom gene array, Breast tum H [2]: 1.89
gene expression level on custom gene array, Breast tum K [2]: 0.96
gene expression level on custom gene array, Ovary nor E [2]: 3.17
gene expression level on custom gene array, Ovary nor F [2]: 3.24
gene expression level on custom gene array, Ovary nor G [2]: 1.26
gene expression level on custom gene array, Ovary tum E [2]: 0.93
gene expression level on custom gene array, Ovary tum F [2]: 0.85
gene expression level on custom gene array, Ovary tum G [2]: 0.80
mRNA EXPRESSION (experimental condition) #1 (human macrophages; [4]): 0.65
mRNA EXPRESSION (experimental condition) #2 (human macrophages; [4]): 0.68
mRNA EXPRESSION (experimental condition) #3 (human macrophages; [4]): 0.99
mRNA EXPRESSION (experimental condition) #4 (human macrophages; [4]): 1.10
mRNA EXPRESSION (experimental condition) #5 (human macrophages; [4]): 1.62
mRNA EXPRESSION (experimental condition) #6 (human macrophages; [4]): 1.80

Reference: patent publication US20030203372A1, “Analysis method” (priority 2000, published 2003)
